Assay results published in publication PMC11403609, “Kinetics of Secoisolariciresinol Glucosyltransferase LuUGT74S1 and Its Mutants” (Journal of Agricultural and Food Chemistry, 2024).
Substitutions are numbered along the chain they refer to. Names may count otherwise.

B1: LuUGT74S1 (Linum usitatissimum; H194S) (protein)
chain: MAGDEREKAHCLVVPAAAQGHFTPLLQFSKRLIPKRIRVTLALTRFIHSTMTVTAQSGIHIDTISDGFDHSGLILQDPEHYSQTFRRVGSETLTDLIRKQSESRHPVHCIIYDASMPWFLDVAKRFGIVGAAFLTQSCAVNAIYYHLREGTIKRPVVSDPAAGTLVIDGLPPLEVSDLPSFIWDDLHTEFLAASLRQFSNDGADWVFCNTVYQLELEAVDWLTKQWLINFRTIGPTIPSFYLDKQIPDDKDYDISIFNPQNQTCMNWLQSKPDGSVVYVSFGSLARLSPQQTEELYFGLKNSNHYFLWVVRESEVAKLPKEEYLSGEKGLVVSWCSQLQVLASGKVGCFVTHCGWNSTLEALSLGVPMVAMPECGDQLTNAKFIKDVWKTGVRAEADDGKGIMWGMIKREVIERCIREVMEGEETRRNADKWGKIIKEAVVEGGSSDKNTEDFATSLINFAETFQFSC
notes: N-terminal GST fusion (pGEX-4T-1, EcoRI/NotI), tag kept (eluted with glutathione); codon-optimised synthetic gene; E. coli BL21(DE3) pLysS
B2: LuUGT74S1 (Linum usitatissimum; A17S) (protein)
chain: B1 chain with A17S, S194H
notes: as for B1
B3: LuUGT74S1 (Linum usitatissimum; Q136E) (protein)
chain: B1 chain with Q136E, S194H
notes: as for B1
B4: LuUGT74S1 (Linum usitatissimum; S115F) (protein)
chain: B1 chain with S115F, S194H
notes: as for B1
B5: LuUGT74S1 (Linum usitatissimum; Q136F) (protein)
chain: B1 chain with Q136F, S194H
notes: as for B1
B6: LuUGT74S1 (Linum usitatissimum; S115A) (protein)
chain: B1 chain with S115A, S194H
notes: as for B1
B7: LuUGT74S1 (Linum usitatissimum; Y144F) (protein)
chain: B1 chain with Y144F, S194H
notes: as for B1
B8: LuUGT74S1 (Linum usitatissimum; Q136S) (protein)
chain: B1 chain with Q136S, S194H
notes: as for B1
B9: LuUGT74S1 (Linum usitatissimum) (protein)
chain: B1 chain with S194H
notes: as for B1

What follows are proteins tested on COc1cc(C[C@@H](CO)[C@H](CO)Cc2ccc(O)c(OC)c2)ccc1O (assay: UDP-Glo glycosyltransferase assay (UDP release), Michaelis-Menten fit). Details: apparent, UDP-glucose 1.64 mM constant (general assay text says 100 μM), 50 mM phosphate pH 8, 30 °C, 30 min, total of mono- and diglucosylation.
Format: biochemical, Linum usitatissimum
Source text: UDP-Glo glycosyltransferase assay (UDP release), Michaelis-Menten fit on LuUGT74S1
For B1, the Km was 122 ± 12 µM, the Vmax was 0.384 µmol/min/mg and the kcat was 0.34 ± 0.06 s⁻¹. It also gave a kcat/Km of 3000 M⁻¹ s⁻¹. Protein B2 has a Km of 68 ± 1 µM, a Vmax of 0.75 µmol/min/mg and a kcat of 0.56 ± 0.45 s⁻¹. It also gave a kcat/Km of 8000 M⁻¹ s⁻¹. B3 was tested, and the Km was 69 ± 2 µM, the Vmax was 0.858 µmol/min/mg and the kcat was 0.75 ± 0.02 s⁻¹. For the same protein, the kcat/Km was 11000 M⁻¹ s⁻¹. B4 gave a Km of 75 ± 1 µM, a Vmax of 0.834 µmol/min/mg and a kcat of 0.77 ± 0.02 s⁻¹. It also gave a kcat/Km of 10000 M⁻¹ s⁻¹. B5 gave a Km of 165 ± 9 µM, a Vmax of 0.324 µmol/min/mg and a kcat of 0.29 ± 0.04 s⁻¹. It also gave a kcat/Km of 2000 M⁻¹ s⁻¹. B6 was tested, and the Km was 70 ± 2 µM, the Vmax was 0.894 µmol/min/mg and the kcat was 0.76 ± 0.08 s⁻¹. For the same protein, the kcat/Km was 11000 M⁻¹ s⁻¹. With B7 the Km was 72 ± 1 µM, the Vmax was 0.9 µmol/min/mg and the kcat was 0.75 ± 0.02 s⁻¹. The kcat/Km was 10000 M⁻¹ s⁻¹. Work on B8 yielded a Km of 75 ± 1 µM, a Vmax of 1.02 µmol/min/mg and a kcat of 0.92 ± 0.71 s⁻¹. It also gave a kcat/Km of 12000 M⁻¹ s⁻¹. B9 gave a Km of 74 ± 1 µM, a Vmax of 0.948 µmol/min/mg and a kcat of 0.8 ± 0.01 s⁻¹. The kcat/Km was 11000 M⁻¹ s⁻¹.
